T1: Enp2 (S. cerevisiae (endogenous in yeast …, UniProt P48234 1-707))
T1 construct: Enp2, S. cerevisiae, endogenous in the Δpih1-90S; its β-propeller is named as the part that Bfr2 touches; Endogenous protein of the 90S particle
T1 sequence (looked up): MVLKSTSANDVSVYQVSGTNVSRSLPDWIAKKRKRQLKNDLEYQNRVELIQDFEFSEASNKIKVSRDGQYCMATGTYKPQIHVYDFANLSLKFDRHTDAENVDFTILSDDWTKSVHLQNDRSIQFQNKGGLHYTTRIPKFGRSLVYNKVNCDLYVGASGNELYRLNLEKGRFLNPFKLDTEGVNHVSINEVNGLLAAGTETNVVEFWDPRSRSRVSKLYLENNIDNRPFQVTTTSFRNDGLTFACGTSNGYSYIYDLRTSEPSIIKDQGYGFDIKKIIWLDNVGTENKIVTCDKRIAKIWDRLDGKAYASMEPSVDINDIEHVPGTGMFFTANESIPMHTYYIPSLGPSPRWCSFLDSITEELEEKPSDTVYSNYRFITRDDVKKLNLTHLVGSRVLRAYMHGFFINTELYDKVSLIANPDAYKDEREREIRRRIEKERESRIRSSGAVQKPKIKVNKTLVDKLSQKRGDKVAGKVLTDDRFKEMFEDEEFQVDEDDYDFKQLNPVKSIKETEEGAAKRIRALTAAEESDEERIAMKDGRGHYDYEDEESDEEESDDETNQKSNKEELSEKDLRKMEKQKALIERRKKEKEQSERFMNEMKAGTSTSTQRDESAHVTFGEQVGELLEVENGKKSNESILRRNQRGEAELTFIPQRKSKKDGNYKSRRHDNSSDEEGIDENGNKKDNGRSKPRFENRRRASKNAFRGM

T2: MBP-Bfr2(266–432) (S. cerevisiae (genomic DNA of BY4741 …, UniProt Q06631 266-432))
T2 construct: source: E. coli Rosetta(DE3); in lysate (pull-down in cell) and purified (amylose, monoQ, gel filtration)
T2 sequence (looked up): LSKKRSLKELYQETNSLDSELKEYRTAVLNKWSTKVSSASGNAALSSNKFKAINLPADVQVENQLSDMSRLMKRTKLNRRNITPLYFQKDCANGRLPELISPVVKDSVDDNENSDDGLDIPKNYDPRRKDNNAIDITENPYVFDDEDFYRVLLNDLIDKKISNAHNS

B1: Bfr2 (natural protein, UniProt Q06631 1-534, looked up)
chain: MEKSLADQISDIAIKPVNKDFDIEDEENASLFQHNEKNGESDLSDYGNSNTEETKKAHYLEVEKSKLRAEKGLELNDPKYTGVKGSRQALYEEVSENEDEEEEEEEEEEKEEDALSFRTDSEDEEVEIDEEESDADGGETEEAQQKRHALSKLIQQETKQAINKLSQSVQRDASKGYSILQQTKLFDNIIDLRIKLQKAVIAANKLPLTTESWEEAKMDDSEETKRLLKENEKLFNNLFNRLINFRIKFQLGDHITQNEEVAKHKLSKKRSLKELYQETNSLDSELKEYRTAVLNKWSTKVSSASGNAALSSNKFKAINLPADVQVENQLSDMSRLMKRTKLNRRNITPLYFQKDCANGRLPELISPVVKDSVDDNENSDDGLDIPKNYDPRRKDNNAIDITENPYVFDDEDFYRVLLNDLIDKKISNAHNSESAAITITSTNARSNNKLKKNIDTKASKGRKLNYSVQDPIANYEAPITSGYKWSDDQIDEFFAGLLGQRVNFNENEDEEQHARIENDEELEAVKNDDIQIFG
notes: Bfr2, S. cerevisiae, endogenous in the Δpih1-90S; the whole protein is 1–534; Endogenous protein of the 90S particle; only part of it is modelled in the map
B2: His-Lcp5(1–160) (domain or fragment, S. cerevisiae, UniProt P40079 1-160, looked up)
chain: MSELNALLKDINGSLTATSESLERLSGIYSNSATDEIPESNQLHEHLFYDAKKPAEKVSLLSLKNGSMLGYINSLLMLIGNRLDDECKDPSAMDARERSIQHRVVLERGVKPLEKKLAYQLDKLTRAYVKMEKEYKDAEKRALEKSTLVNHSGNDDSEDD
notes: Lcp5, S. cerevisiae, residues 1–160, polyhistidine tagged; The methods describe only the cloning of the untagged Lcp5(1–160); also called polyhistidine tagged Lcp5 fragment 1–160; source: bacteria expression host, purified
B3: Lcp5 (natural protein, UniProt P40079 1-357, looked up)
chain: MSELNALLKDINGSLTATSESLERLSGIYSNSATDEIPESNQLHEHLFYDAKKPAEKVSLLSLKNGSMLGYINSLLMLIGNRLDDECKDPSAMDARERSIQHRVVLERGVKPLEKKLAYQLDKLTRAYVKMEKEYKDAEKRALEKSTLVNHSGNDDSEDDESSEDEIAYRPNTSGIINTNKKSSAYRVEETAKQENGEENDDNETGVYKPPKITAVLPPQQTHFEDRFDAREHKDRSNKSRMQAMEEYIRESSDQPDWSASIGADIVNHGRGGIKSLRDTEKERRVTSFEEDNFTRLNITNKAEKRKQKQRERNARMNVIGGEDFGIFSSKRKLEDSTSRRGAKKTRSAWDRAQRRL
notes: Lcp5, S. cerevisiae, endogenous in the Δpih1-90S; the newly modelled N-terminal domain holds residues 1–141; Endogenous protein of the 90S particle; only part of it is modelled in the map

Key:
Settings in all cases: both partners purified
Enp2 = target: T1, Enp2; experiment: cryo-EM structure; Δpih1-90S purified from yeast by tandem affinity (Pwp2-TAP on IgG Sepharose, Kre33-TwinStrep on Strep-Tactin); 3.99 Å overall, 5.04 Å for the head (5' domain) where Bfr2-Lcp5 lies; Bfr2-Lcp5 model placed with the aid of AlphaFold
MBP-Bfr2(266–432) = target: T2, MBP-Bfr2(266–432); experiment: pull-down; in vitro: purified MBP, MBP-Bfr2(360–432) or MBP-Bfr2(266–432) as bait with purified His-Lcp5(1–160)
Bfr2 = target: B1; experiment: cryo-EM structure; Δpih1-90S purified from yeast by tandem affinity (Pwp2-TAP on IgG Sepharose, Kre33-TwinStrep on Strep-Tactin); 3.99 Å overall, 5.04 Å for the head (5' domain) where Bfr2-Lcp5 lies; Bfr2-Lcp5 model placed with the aid of AlphaFold

Binder: B1
- binding result (Enp2): binds

Binder: B2
- binding result (MBP-Bfr2(266–432)): binds

Binder: B3
- binding result (Bfr2): binds
